Consider two substances from patent publication US6943243.

This assay has as its target TraR (Agrobacterium strain A348). In words: cell-based or functional assay.

Regarding TraM, the fold +/- (induction of GUS by C8-AHL, TraR + TraM co-transfected) came out at 0.8 fold.

TraS: the fold +/- (induction of GUS by C8-AHL, TraR + TraS co-transfected) was 6.6 fold.
